Positions count from the first letter of the chain named. Numbers in names are those of the source. Where two headings read alike, the source gives them in different places.
B1: QuasAr1: Archaerhodopsin 3 variant with mutations P60S, T80S, D95H, D106H, F161V; genetically encoded voltage indicator (protein)
chain: MDPIALQAGYDLLGDGRPETLWLGIGTLLMLIGTFYFLVRGWGVTDKDAREYYAVTILVSGIASAAYLSMFFGIGLTEVSVGGEMLDIYYARYAHWLFTTPLLLLHLALLAKVDRVTIGTLVGVDALMIVTGLIGALSHTAIARYSWWLFSTICMIVVLYVLATSLRSAAKERGPEVASTFNTLTALVLVLWTAYPILWIIGTEGAGVVGLGIETLLFMVLDVTAKVGFGFILLRSRAILGDTEAPEPSAGADVSAAD
B2: QuasAr2: Archaerhodopsin 3 variant with mutations P60S, T80S, D95Q, D106H, F161V; genetically encoded voltage indicator (protein)
chain: B1 chain with H95Q

Legend:
[1] = Quantum yield of solubilized protein (Cy5 reference); type: physicochemical; details: for Quantum yield / Quantum yield relative to Arch D95N: excitation at 600 nm
Procedure: Solubilization and spectroscopic characterization of QuasAr1 and QuasAr: E. coli expressing QuasAr1 and QuasAr2 were grown in 12 mL LB medium with 200 μg/ml ampicillin overnight. The next day, 12 mL of liquid LB medium containing 50 μM retinal, 200 μg/ml ampicillin and 0.1% arabinose was added into the overnight culture, followed by additional incubation at 37° C. for 4 hours. The cell pellets were collected by centrifugation and lysed by suspension in B-PER solution (Pierce). The cytoplasmic fraction was discarded after centrifugation and the colored insoluble fraction was resuspended in phosphate buffered saline (PBS) containing 1.5% n-dodecyl-β-D-maltopyranoside (Affymetrix, Inc.). The suspension was homogenized by an ultrasonic homogenizer and centrifuged (17,000 g for 15 mins, 4° C.). The solubilized protein in the supernatant was used for in vitro spectroscopic characterization.
Absorption spectra were recorded on a DU-800 UV-visible spectrophotometer (Beckman) and fluorescence spectra were recorded on a Safire2 plate reader (Tecan). Cy5 carboxylic acid (Cyandye) was used as the reference for quantum yield measurement. Quantum yield measurements were performed on a series of dilutions of each protein solution and standard, with absorbance values ranging from 0.01 to 0.05 at 600 nm. The fluorescence emission spectra of each dilution were recorded with excitation at 600 nm and the total fluorescence intensities obtained by integration. Integrated fluorescence intensity vs. absorbance was plotted for each protein and each standard. Quantum yields, Φ, were determined from the slopes (S) of each line using the equation: Φprotein=Φstandard×(Sprotein/Sstandard).

[2] = tested on: cultured rat hippocampal neurons; details: for signal-to-noise ratio (SNR) for single APs: 640 nm; for photobleaching time constant: continuous illumination 640 nm; for broadening of optically recorded AP relative to electrical waveform at 70% maximum depolarization: room temperature, 2 kHz frame rate; for r.m.s. temporal jitter of AP timing relative to patch clamp: sub-frame interpolation
[3] = tested on: cultured rat hippocampal neurons; experiment: Single-trial detection of neuronal action potentials with eFRET GEVIs; type: cell-based; details: 3 W/cm^2 illumination, exposure times compatible with single action potentials
Description: We further characterized the most sensitive eFRET voltage sensors via transient transfection in cultured rat hippocampal neurons. […] Injection of current pulses via a patch pipette (500-600 pA, 5-10 ms, 5 Hz) induced trains of action potentials, which induced downward fluorescence transients of 12% (YFP), 12% (mOrange2), 7% (mRuby2).
The signal-to-noise ratio (SNR) of fluorescence detection, defined as the ratio of the peak amplitude to standard deviation of fluorescence at the baseline, was 6.6 (YFP), 11.6 (mOrange2), and 10.5 (mRuby2). In all cases images were acquired at 1 kHz with 3 W/cm^2 illumination intensity. Previous measurements with QuasAr2 reported an SNR of 30-70 at the same bandwidth but with 800 W/cm^2 illumination.

| Molecule | fluorescence quantum yield enhanced relative to Arch(D95N) [1] | Quantum yield [1] | Quantum yield relative to Arch D95N [1] | equivalent electrical noise level ([2]; 300 W/cm^2) | signal-to-noise ratio (SNR) for single APs ([2]; 300 W/cm^2, 1 kHz frame rate) | signal-to-noise ratio (SNR) for single APs ([2]; 800 W/cm^2, 1 kHz frame rate) | equivalent electrical noise level ([2]; 800 W/cm^2) | photobleaching time constant ([2]; 300 W/cm^2) | r.m.s. error in timing ([2]; optically induced APs, soma, sub-frame interpolation vs patch clamp) | broadening of optically recorded AP relative to electrical waveform at 70% maximum depolarization ([2]; mean±s.d.) | r.m.s. temporal jitter of AP timing relative to patch clamp [2] | direct fluorescence [3] | single-trial SNR ([2]; 34° C., 640 nm 300 W/cm^2) | broadening of optically recorded AP relative to electrical waveform ([2]; 34° C., mean±s.d.) | fidelity of AP reporting (red light phototoxicity test) ([2]; continuous illumination at 300 W/cm^2, 30 min) |
| --- | --- | --- | --- | --- | --- | --- | --- | --- | --- | --- | --- | --- | --- | --- | --- |
| B1 | 19 fold | 8 × 10^−3 | 19 | 4.3 mV | 21±2 | 32±4 | 3.0 mV | 440 s | 54 μs | did not introduce detectable broadening | 44 μs | – | – | – | – |
| B2 | 10 fold | 4 × 10^−3 | 10 | 2.2 mV | 41±4 | – | 1.5 mV | 1020 s | – | 650±150 μs | 61 μs | not detectable | 41±3 | 180±120 μs | 100% |

Source: patent US9518103B2, “Optogenetic probes for measuring membrane potential” (President and Fellows of Harvard College, priority 2014, dated 2016)
